{"source": "paper PMC8354229", "molecules": {"B1": {"name": "HIV-1 Vpr (WT), expressed from pNL4-3unc, P12520 1-96 (natural protein)", "chain": "MEQAPEDQGPQREPYNEWTLELLEELKSEAVRHFPRIWLHNLGQHIYETYGDTWAGVEAIIRILQQLLFIHFRIGCRHSRIGVTRQRRARNGASRS"}}, "key": {"[1]": {"molecular_target": "HIV-1 Vpr (WT), expressed from pNL4-3unc (UniProt P12520)", "assay": "immunoblot of virions (Vpr incorporation, Vpr/CA ratio, LI-COR quantification)", "conditions": "equivalent RT units of virus concentrated by ultracentrifugation through a sucrose cushion; parent: est. 100; read off a plot"}, "[2]": {"molecular_target": "HIV-1 Gag p6 Mutant 4 (FRFG to alanines) (HIV-1 (NL4-3-based proviral plasmid)) (UniProt P12493)", "assay": "virion incorporation (virions pelleted through sucrose, immunoblot); virus from 293T cells transfected with pNL4-3unc proviral plasmids (Gag and Vpr from the same construct); concentrated through a 20% (w/v) sucrose cushion, 2 h, 10,000 g, 4°C; equivalent RT units on SDS-PAGE; anti-Vpr and anti-CA immunoblot; Vpr/CA ratio relative to WT virions (LI-COR)"}, "[3]": {"molecular_target": "HIV-1 Gag p6 Mutant 11 (LXXL to alanines) (HIV-1 (NL4-3-based proviral plasmid)) (UniProt P12493)", "assay": "virion incorporation (virions pelleted through sucrose, immunoblot); virus from 293T cells transfected with pNL4-3unc proviral plasmids (Gag and Vpr from the same construct); concentrated through a 20% (w/v) sucrose cushion, 2 h, 10,000 g, 4°C; equivalent RT units on SDS-PAGE; anti-Vpr and anti-CA immunoblot; Vpr/CA ratio relative to WT virions (LI-COR)"}, "[4]": {"molecular_target": "HIV-1 Gag with WT p6, expressed from pNL4-3unc (HIV-1 (NL4-3-based proviral plasmid)) (UniProt P12493)", "assay": "virion incorporation (virions pelleted through sucrose, immunoblot); virus from 293T cells transfected with pNL4-3unc proviral plasmids (Gag and Vpr from the same construct); concentrated through a 20% (w/v) sucrose cushion, 2 h, 10,000 g, 4°C; equivalent RT units on SDS-PAGE; anti-Vpr and anti-CA immunoblot; Vpr/CA ratio relative to WT virions (LI-COR)"}, "[5]": {"molecular_target": "HIV-1 Gag p6 Mutant 12 (alanine substitutions in the LXXLF motif) (HIV-1 (NL4-3-based proviral plasmid)) (UniProt P12493)", "assay": "virion incorporation (virions pelleted through sucrose, immunoblot); virus from 293T cells transfected with pNL4-3unc proviral plasmids (Gag and Vpr from the same construct); concentrated through a 20% (w/v) sucrose cushion, 2 h, 10,000 g, 4°C; equivalent RT units on SDS-PAGE; anti-Vpr and anti-CA immunoblot; Vpr/CA ratio relative to WT virions (LI-COR)"}, "[6]": {"molecular_target": "T1, HIV-1 Vpr (WT), expressed from pNL4-3unc (HIV-1 (NL4-3-based proviral plasmid)), P12520", "T1 chain": "B1 chain", "assay": "cross-linking; virions pelleted through sucrose, 1% formaldehyde in PBS 20 min at room temperature, quenched with 250 mM Tris-HCl pH 7.5, pelleted again through sucrose, SDS-PAGE and anti-Vpr immunoblot", "conditions": "remark: other sources report otherwise"}}, "note": "“And” between values parts separate entries of the source, which are not always exact repeats. Equal values may be shown once.", "data": [{"molecule": "HIV-1 Gag with WT p6, expressed from pNL4-3unc (from UniProt P12493) P49A; S50A; S51A; Q52A", "values": [{"measurement": "percent of parent", "setting": "[1]", "result": 76, "unit": "% WT"}]}, {"molecule": "HIV-1 Vpr L67A (from UniProt P12520 1-96) (natural protein)", "values": [{"measurement": "fold lower Vpr packaging than the same p6 mutant with WT Vpr", "setting": "[2]", "result": "> 10", "unit": "fold"}, {"measurement": "fold lower Vpr packaging than the same p6 mutant with WT Vpr", "setting": "[3]", "result": "> 10", "unit": "fold"}, {"measurement": "fold reduction of Vpr incorporation against WT Vpr", "setting": "[4]", "result": 2, "unit": "fold"}]}, {"molecule": "HIV-1 Gag with WT p6, expressed from pNL4-3unc (from UniProt P12493) P11A; E12A; E13A; S14A", "values": [{"measurement": "percent of parent", "setting": "[1]", "result": 62, "unit": "% WT"}]}, {"molecule": "HIV-1 Gag with WT p6, expressed from pNL4-3unc (from UniProt P12493) E34A; L35A; Y36A", "values": [{"measurement": "percent of parent", "setting": "[1]", "result": 73, "unit": "% WT"}]}, {"molecule": "HIV-1 Gag with WT p6, expressed from pNL4-3unc (from UniProt P12493) R4A; P5A; E6A", "values": [{"measurement": "percent of parent", "setting": "[1]", "result": 85, "unit": "% WT"}]}, {"molecule": "HIV-1 Gag with WT p6, expressed from pNL4-3unc (from UniProt P12493) I31A; D32A; K33A", "values": [{"measurement": "percent of parent", "setting": "[1]", "result": 90, "unit": "% WT"}]}, {"molecule": "HIV-1 Gag with WT p6, expressed from pNL4-3unc (from UniProt P12493) E19A; E20A; T21A; T22A", "values": [{"measurement": "percent of parent", "setting": "[1]", "result": 52, "unit": "% WT"}]}, {"molecule": "HIV-1 Gag with WT p6, expressed from pNL4-3unc (from UniProt P12493) P37A; L38A; S40A", "values": [{"measurement": "percent of parent", "setting": "[1]", "result": 62, "unit": "% WT"}]}, {"molecule": "HIV-1 Gag with WT p6, expressed from pNL4-3unc (from UniProt P12493) K27A; Q28A; E29A; P30A", "values": [{"measurement": "percent of parent", "setting": "[1]", "result": 93, "unit": "% WT"}]}, {"molecule": "HIV-1 Gag with WT p6, expressed from pNL4-3unc (from UniProt P12493) T23A; P24A; S25A; Q26A", "values": [{"measurement": "percent of parent", "setting": "[1]", "result": 59, "unit": "% WT"}]}, {"molecule": "HIV-1 Vpr (WT), expressed from pNL4-3unc (from UniProt P12520 1-96) (natural protein)", "values": [{"measurement": "Vpr incorporated, % of WT virions (Vpr/CA ratio)", "setting": "[5]", "result": "< 30", "unit": "%"}, {"measurement": "Vpr incorporated, % of WT virions (Vpr/CA ratio)", "setting": "[2]", "result": "< 30", "unit": "%"}, {"measurement": "Vpr incorporated, % of WT virions (Vpr/CA ratio)", "setting": "[3]", "result": "< 30", "unit": "%"}]}, {"molecule": "B1", "values": [{"measurement": "stoichiometry N", "setting": "[6]", "result": "2 and 3"}]}]}
